B1: Azoarcus group I ribozyme (parent)
chain: GUGCCUUGCGCCGGGAAACCACGCAAGGGAUGGUGUCAAAUUCGGCGAAACCUAAGCGCCCGCCCGGGCGUAUGGCAACGCCGAGCCAAGCUUCGGCGCCUGCGCCGAUGAAGGUGUAGAGACUAGACGGCACCCACCUAAGGCAAACGCUAUGGUGAAGGCAUAGUCCAGGGAGUGGCGAAAGUCACACAAACCGG

Variants of: B1
Test: reverse-splicing fitness (ratio to wild type); higher = more active; in vitro selection; Mg2+ level not given
Procedure, shortened: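 An in vitro group I ribozyme library with randomized positions was T7-transcribed and gel-purified. In triplicate, 10 pmol RNA in EPPS pH 7.5 was reacted with 50 pmoles of a 30-nt RNA substrate for 1 h at 37 °C across several added MgCl2 levels (1–48 mM), then stopped with EDTA. Products were reverse transcribed from a substrate-complementary primer, PCR-amplified and sequenced (HiSeq 4000). Fitness is a variant's read proportion after selection over that before, normalised to wild type.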

First: C82U A111G A145U C150A C169A
Second: C82U A111U A120C A145C C169G
The reverse-splicing fitness of the first is higher: 0.0078 for the first, 0.00709 for the second.

First: C82U A111U A120C A145C C169A
Second: C82U A111U A120C A145C C169U
The reverse-splicing fitness of the first is lower: 0.0065 for the first, 0.011 for the second.

Compared with C82U A111G A145C C150G, C82U A111G A145C C150A is lower in reverse-splicing fitness: 0.0393 for the first, 0.019 for the second.

Going from C82U A111G A145C C150U to C82U A111G A145G C150A C169G U176G, the reverse-splicing fitness falls from 0.091 to 0.00543.

Compared with C82U A111G A145G C150A C169G U176C, C82U A111G A145G C150A C169G U176A is lower in reverse-splicing fitness: 0.0236 for the first, 0.0194 for the second.

Going from C82U A111G A145U C150A U176C to C82U A111G A145U C150A U176A, the reverse-splicing fitness falls from 0.0305 to 0.0234.

First: C82U A111G A145U C150A U176G
Second: C82U A111G C169U U176A
The reverse-splicing fitness of the first is lower: 0.0097 for the first, 0.0145 for the second.

Compared with C82U A111G C169U U176C, C82U A111G C169U U176G is lower in reverse-splicing fitness: 0.0132 for the first, 0.00449 for the second.

First: C82U A111U A120C A145G C150A C169A
Second: C82U A111U A120C A145G C150A C169G
The reverse-splicing fitness of the first is higher: 0.0103 for the first, 0.00791 for the second.

Compared with C82U A111G U176C, C82U A111G U176A is lower in reverse-splicing fitness: 0.274 for the first, 0.193 for the second.

First: C82U A111G U176G
Second: C82U A111G C150G C169A
The reverse-splicing fitness of the first is higher: 0.0517 for the first, 0.00812 for the second.

Going from C82U A111G C150G C169G to C82U A111G C150G C169U, the reverse-splicing fitness rises from 0.00675 to 0.00811.

Compared with C82U A111G A145G C150G C169U, C82U A111G A145G C150G C169A is lower in reverse-splicing fitness: 0.00891 for the first, 0.00883 for the second.

Compared with C82U A111G A145G C150G C169G, C82U A111U A120C A145C C150U C169G U176A is higher in reverse-splicing fitness: 0.007 for the first, 0.0175 for the second.

Compared with C82U A111U A120C A145C C150U C169G U176C, C82U A111U A120C A145C C150U C169G U176G is lower in reverse-splicing fitness: 0.00936 for the first, 0.00538 for the second.

Compared with C82U A111G A145G C169G U176A, C82U A111G A145G C169G U176C is higher in reverse-splicing fitness: 0.02 for the first, 0.0236 for the second.

First: C82U A111G A145G C169G U176G
Second: C82U A111G C169G U176C
The reverse-splicing fitness of the first is lower: 0.00438 for the first, 0.0183 for the second.

Going from C82U A111G C169G U176A to C82U A111G C169G U176G, the reverse-splicing fitness falls from 0.0159 to 0.00463.

First: C82U A111G A145C C169A U176A
Second: C82U A111G A145C C169A U176C
The reverse-splicing fitness of the first is higher: 0.00798 for the first, 0.00406 for the second.

Going from C82U A111G A145C C169A U176G to C82U A111G A145C C150G C169U, the reverse-splicing fitness rises from 0.00408 to 0.00804.

Compared with C82U A111G A145C C150G C169A, C82U A111G A145C C150G C169G is lower in reverse-splicing fitness: 0.00744 for the first, 0.00679 for the second.

First: C82U A111G A120U C169U U176A
Second: C82U A111G A120U C169U U176C
The reverse-splicing fitness of the first is lower: 0.00282 for the first, 0.00442 for the second.

Compared with C82U A111G A120U C169U U176G, C82U A111G A145U C150U C169A U176C is higher in reverse-splicing fitness: 0.0017 for the first, 0.00733 for the second.

Compared with C82U A111G A145U C150U C169A U176G, C82U A111G A145U C150U C169A U176A is higher in reverse-splicing fitness: 0.00546 for the first, 0.0115 for the second.

Going from C82U A111U A120C A145C C150A U176G to C82U A111U A120C A145C C150A U176C, the reverse-splicing fitness rises from 0.00471 to 0.00753.

First: C82U A111U A120C A145C C150A U176A
Second: C82U A111G C150U U176G
The reverse-splicing fitness of the first is lower: 0.00819 for the first, 0.0286 for the second.

Going from C82U A111G C150U U176A to C82U A111G C150U U176C, the reverse-splicing fitness rises from 0.102 to 0.146.

Going from C82U A111G A145C C169G to C82U A111G A145C C169A, the reverse-splicing fitness falls from 0.0078 to 0.00618.

Compared with C82U A111G A145C C169U, C82U A111G A120U U176G is lower in reverse-splicing fitness: 0.00982 for the first, 0.00489 for the second.

Compared with C82U A111G A120U U176A, C82U A111G A120U U176C is higher in reverse-splicing fitness: 0.011 for the first, 0.0192 for the second.

First: C82U A111G A145C C150G C169G U176A
Second: C82U A111G A145C C150G C169G U176G
The reverse-splicing fitness of the first is higher: 0.00777 for the first, 0.0047 for the second.

Going from C82U A111G A145C C150G C169G U176C to C82U A111G A145G C150U C169A U176G, the reverse-splicing fitness falls from 0.00634 to 0.00534.

First: C82U A111G A145G C150U C169A U176C
Second: C82U A111G A145G C150U C169A U176A
The reverse-splicing fitness of the first is higher: 0.0167 for the first, 0.0161 for the second.

Compared with C82U A111G C150U C169G U176C, C82U A111G C150U C169G U176G is lower in reverse-splicing fitness: 0.0162 for the first, 0.00558 for the second.

First: C82U A111G C150U C169G U176A
Second: C82U A111G A145U C150G C169A U176G
The reverse-splicing fitness of the first is higher: 0.0191 for the first, 0.00561 for the second.

First: C82U A111G A145U C150G C169A U176A
Second: C82U A111G A145U C150G C169A U176C
The reverse-splicing fitness of the first is lower: 0.00927 for the first, 0.00932 for the second.

Compared with C82U A111G A145C C150A C169A U176C, C82U A111G A145C C150A C169A U176A is higher in reverse-splicing fitness: 0.00627 for the first, 0.0104 for the second.

Going from C82U A111G A145C C150A C169A U176G to C82U A111U A120C A145C C150G U176C, the reverse-splicing fitness rises from 0.00539 to 0.00663.

Compared with C82U A111U A120C A145C C150G U176G, C82U A111U A120C A145C C150G U176A is higher in reverse-splicing fitness: 0.00237 for the first, 0.00494 for the second.

Going from C82U A111G A145G C150A C169A to C82U A111G A145G C150A C169G, the reverse-splicing fitness falls from 0.0102 to 0.0093.

Compared with C82U A111G A145G C150A C169U, C82U A111U A120C A145C C169G U176A is higher in reverse-splicing fitness: 0.01 for the first, 0.0202 for the second.

First: C82U A111U A120C A145C C169G U176G
Second: C82U A111U A120C A145C C169G U176C
The reverse-splicing fitness of the first is lower: 0.00439 for the first, 0.0105 for the second.

Source: the RNAGym collection of RNA variant scans (doi:10.1093/molbev/msab373)
